Test results taken from article PMC5342420, “CD109 is identified as a potential nasopharyngeal carcinoma biomarker using aptamer selected by cell-SELEX”.

Key:
[1] = target: T1, CD109 (endogenous, 5-8F cells) (UniProt Q6YHK3); assay: flow cytometry; details: whole 5-8F cells, on ice, 10% FBS, library background subtracted, Cells: D-PBS (Ca/Mg-free) + 4.5 g/L glucose, 5 mM MgCl2, 0.1 mg/mL yeast tRNA, 1 mg/mL BSA, on ice 0.5 h, EMSA: binding buffer, 4 C, 5% native PAGE in …
T1 sequence: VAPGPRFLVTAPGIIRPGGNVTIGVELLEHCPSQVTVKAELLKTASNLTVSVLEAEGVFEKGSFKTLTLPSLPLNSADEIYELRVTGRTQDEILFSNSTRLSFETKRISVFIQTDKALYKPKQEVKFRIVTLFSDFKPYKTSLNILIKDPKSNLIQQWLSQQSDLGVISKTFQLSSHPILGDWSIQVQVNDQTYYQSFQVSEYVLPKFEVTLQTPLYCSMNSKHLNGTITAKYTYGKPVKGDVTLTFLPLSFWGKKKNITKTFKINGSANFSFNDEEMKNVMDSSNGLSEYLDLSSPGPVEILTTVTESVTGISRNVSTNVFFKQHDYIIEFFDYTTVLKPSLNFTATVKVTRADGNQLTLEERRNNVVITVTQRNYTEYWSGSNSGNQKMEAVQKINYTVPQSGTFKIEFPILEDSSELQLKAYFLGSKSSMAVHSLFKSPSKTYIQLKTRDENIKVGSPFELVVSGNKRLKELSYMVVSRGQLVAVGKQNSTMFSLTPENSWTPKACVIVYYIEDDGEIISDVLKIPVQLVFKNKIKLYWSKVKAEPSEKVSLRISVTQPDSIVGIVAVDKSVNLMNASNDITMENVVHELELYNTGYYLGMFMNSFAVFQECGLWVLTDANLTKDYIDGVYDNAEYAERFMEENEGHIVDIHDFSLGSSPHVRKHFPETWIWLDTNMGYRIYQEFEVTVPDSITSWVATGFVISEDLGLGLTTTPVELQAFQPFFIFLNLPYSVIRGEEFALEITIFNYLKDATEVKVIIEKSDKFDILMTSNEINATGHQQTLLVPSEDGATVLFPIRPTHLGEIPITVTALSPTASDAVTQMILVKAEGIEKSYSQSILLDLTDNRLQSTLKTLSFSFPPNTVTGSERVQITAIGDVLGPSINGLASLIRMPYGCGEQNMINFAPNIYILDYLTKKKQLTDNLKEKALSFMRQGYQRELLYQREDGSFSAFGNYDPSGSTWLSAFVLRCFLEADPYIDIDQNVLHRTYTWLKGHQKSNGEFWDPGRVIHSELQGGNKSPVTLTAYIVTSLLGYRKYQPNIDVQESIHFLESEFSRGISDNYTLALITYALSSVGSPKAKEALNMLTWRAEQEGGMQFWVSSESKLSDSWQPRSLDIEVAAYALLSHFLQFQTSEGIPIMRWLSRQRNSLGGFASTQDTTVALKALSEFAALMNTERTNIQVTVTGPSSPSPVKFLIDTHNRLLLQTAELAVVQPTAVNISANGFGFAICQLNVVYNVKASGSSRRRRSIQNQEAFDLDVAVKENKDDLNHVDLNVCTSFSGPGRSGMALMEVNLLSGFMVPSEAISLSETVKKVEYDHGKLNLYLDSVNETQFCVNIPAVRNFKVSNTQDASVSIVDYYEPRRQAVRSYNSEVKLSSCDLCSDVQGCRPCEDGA

CD109 (recombinant) = CD109 (recombinant) (Homo sapiens, UniProt Q6YHK3 22-1420); assay: EMSA; 4 C; Cells: D-PBS (Ca/Mg-free) + 4.5 g/L glucose, 5 mM MgCl2, 0.1 mg/mL yeast tRNA, 1 mg/mL BSA, 10% FBS, on ice 0.5 h; EMSA: binding buffer, 4 C, 5% native PAGE in; details: protein: commercial; label: FAM

“ATCCAGAGTGACGCAGCATCTGAGAATAGTGGTTTGCTGTATGGTGGGCGTTGAAAGAGGGGTGGACACGGTGGCTTAGT [S3 (FITC-labeled)]” was tested. Which Kd [1] did it give?
Its Kd is 11.9 nM.

B1: S3 (FAM-labeled) (ssDNA)
DNA: ATCCAGAGTGACGCAGCATCTGAGAATAGTGGTTTGCTGTATGGTGGGCGTTGAAAGAGGGGTGGACACGGTGGCTTAGT
Does B1 bind (CD109 (recombinant))?
Result: binds
